In assay [1] the test system is Arabidopsis. Kind of assay: dgt-28 as a selectable marker with glyphosate selection. The following applies: 26.25-1680 g ae/ha glyphosate applied 7 and 11 DAP. The class given is in vivo, Arabidopsis thaliana. As to the method:
The use of dgt-28 as a selectable marker for glyphosate selection agent is tested with the Arabidopsis transformed plants described above. Approximately 50 T4 generation Arabidopsis seed (homozygous for dgt-28) are spiked into approximately 5,000 wildtype (sensitive to glyphosate) seed. The seeds are germinated and plantlets are sprayed with a selecting dose of glyphosate. Several treatments of glyphosate are compared; each tray of plants receives either one or two application timings of glyphosate in one of the following treatment schemes: 7 DAP (days after planting), 11 DAP, or 7 followed by 11 DAP. Since all plants also contain a glufosinate resistance gene in the same transformation vector, dgt-28 containing plants selected with glyphosate can be directly compared to DSM-2 or pat containing plants selected with glufosinate.
Glyphosate treatments are applied with a DeVilbiss™ spray tip as previously described. Transgenic plants containing dgt-28 are identified as “resistant” or “sensitive” 17 DAP. […] Sensitive and resistant plants are counted and the number of glyphosate tolerant plants is found to correlate with the original number of transgenic seed containing the dgt-28 transgene which are planted.

For assay [2], the system named is Zea mays B104. Kind of assay: Post-emergence glyphosate tolerance of dgt-28 T0 corn (greenhouse). The format is in vivo. The following applies: T0 dgt-28 corn plants. As to the method: Zea mays dgt-28 transformation events (T0) were allowed to acclimate in the greenhouse and were grown until plants had transitioned from tissue culture to greenhouse growing conditions (i.e., 2-4 new, normal looking leaves had emerged from the whorl). Plants were grown at 27° C. under 16 hour light:8 hour dark conditions in the greenhouse. The plants were then treated with commercial formulations of DURANGO DMA™ (containing the herbicide glyphosate) with the addition of 2% w/v ammonium-sulfate. Herbicide applications were made with a track sprayer at a spray volume of 187 L/ha, 50-cm spray height. T0 plants were sprayed with a range of glyphosate from 280-4480 g ae/ha glyphosate, which is capable of significant injury to untransformed corn lines. A lethal dose is defined as the rate that causes >95% injury to the B104 inbred.
T0 events of dgt-28 linked with TraP4, TraP5, TraP8 and TraP23 were generated by Agrobacterium transformation and were allowed to acclimate under controlled growth chamber conditions until 2-4 new, normal looking leaves had emerged from the whorl. Plants were assigned individual identification numbers and sampled for copy number analyses of both dgt-28 and aad-1. Based on copy number analyses, plants were selected for protein expression analyses. Plants were transplanted into larger pots with new growing media and grown at 27° C. under 16 hour light:8 hour dark conditions in the greenhouse. Remaining plants that were not sampled for protein expression were then treated with commercial formulations of DURANGO DMA™ (glyphosate) with the addition of 2% w/v ammonium-sulfate. Treatments were distributed so that each grouping of plants contained T0 events of varying copy number. Herbicide applications were made with a track sprayer at a spray volume of 187 L/ha, 50-cm spray height. T0 plants were sprayed with a range of glyphosate from 280-4480 g ae/ha glyphosate capable of significant injury to untransformed corn lines. A lethal dose is defined as the rate that causes >95% injury to the B104 inbred. B104 was the genetic background of the transformants.

The subject of assay [3] is Zea mays hybrid 4XP811/B104. The experiment in a line: Glyphosate tolerance of dgt-28 corn under field conditions. The class given is in vivo. To be noted: corn under field conditions through the reproductive growth stages. The text has this: Single copy T1 events were sent to a field location to create both hybrid hemizygous and inbred homozygous seed for additional characterization. Hybrid seeds were created by crossing T1 events in the maize transformation line B104 to the inbred line 4XP811 generating hybrid populations segregating 1:1 (hemizygous:null) for the event. The resulting seeds were shipped to 2 separate locations. A total of five single copy events per construct were planted at each location in a randomized complete block design in triplicate. The fields were designed for glyphosate applications to occur at the V4 growth stage and a separate grouping of plants to be applied at the V8 growth stage. The 4XP811/B104 conventional hybrid was used as a negative control.
Experimental rows were treated with 184 g ae/ha ASSURE II™ (106 g ai/L quizalofop-methyl) to eliminate null segregants. All experimental entries segregated 1:1 (sensitive:resistant) (p=0.05) with respect to the ASSURE II™ application. Selected resistant plants were sampled from each event for quantification of the DGT-28 protein by standard ELISA.
Quizalofop-methyl resistant plants were treated with the commercial herbicide DURANGO DMA™ (480 g ae/L glyphosate) with the addition of 2.5% w/v ammonium-sulfate at either the V4 or V8 growth stages. […]

In assay [4] the test system is rice. The experiment in a line: Postemergence glyphosate tolerance of dgt-28 rice (T0, T1). The class given is in vivo, Oryza sativa. To be noted: following 560 g ae/ha glyphosate used for selection. As to the method:
Transplanted rice transformants produced via Agrobacterium transformation were transplanted into media and acclimated to greenhouse conditions. […] Selected T0 events from construct pDAB110828 were treated with 2240 g ae/ha DURANGO DMA™ as previously described and assessed 7 and 14 days after treatment. […] All PCR positive plants were allowed to produce T1 seed for further characterization.
(§1) T1 resistant plants from each event used in the progeny testing were given unique identifiers and sampled for zygosity analyses of the dgt-28 gene. Zygosity data were used to assign 2 hemizygous and 2 homozygous replicates to each rate of glyphosate applied allowing for a total of 4 replicates per treatment. These plants were compared against wildtype kitaake rice. All plants were sprayed with a track sprayer set at 187 L/ha. The plants were sprayed from a range of 560-2240 g ae/ha DURANGO DMA™. All applications were formulated in water with the addition of 2% w/v ammonium sulfate (AMS). Plants were evaluated at 7 and 14 days after treatment. Plants were assigned an injury rating with respect to overall visual stunting, chlorosis, and necrosis. The T1 generation is segregating, so some variable response is expected due to difference in zygosity.

In assay [5] the test system is tobacco (cv. Petit Havana). The experiment in a line: Postemergence glyphosate tolerance of dgt-28 tobacco (T1, T2). The class given is in vivo. To be noted: tobacco through two generations.
Text: as §1, with “Petite havana tobacco.” for “kitaake rice.”, “560-4480” for “560-2240”
Rates of DURANGO DMA™ ranging from 420-3360 g ae/ha glyphosate were applied to 2-3 leaf tobacco as previously described.

B1: DGT-28: EPSP synthase (GENBANK ZP_06917240.1) from Streptomyces sviceus ATCC29083; glyphosate tolerance gene and protein (protein)
chain: MRGMPALSLPGSKSITARALFLAAAADGVTTLVRPLRSDDTEGFAEGLVRLGYRVGRTPDTWQVDGRPQGPAVAEADVYCRDGATTARFLPTLAAAGHGTYRFDASPQMRRRPLLPLSRALRDLGVDLRHEEAEGHHPLTVRAAGVEGGEVTLDAGQSSQYLTALLLLGPLTRQGLRIRVTDLVSAPYVEITLAMMRAFGVEVAREGDVFVVPPGGYRATTYAIEPDASTASYFFAAAALTPGAEVTVPGLGTGALQGDLGFVDVLRRMGAEVSVGADATTVRGTGELRGLTANMRDISDTMPTLAAIAPFASAPVRIEDVANTRVKECDRLEACAENLRRLGVRVATGPDWIEIHPGPATGAQVTSYGDHRIVMSFAVTGLRVPGISFDDPGCVRKTFPGFHEAFAELRRGIGS
Turning to B1, the “selection for transgenic Arabidopsis plants with glyphosate” value in assay [1] is listed as “effective selection”. Moreover, the “glyphosate rate up to which tolerance was achieved” value in assay [2] is listed as “up to 4480 g ae/ha”. In addition, the entries for the “glyphosate rate up to which robust tolerance was shown” value in assay [3] and in assay [5] were “up to 4480 g ae/ha” and “up to 3360 g ae/ha”, respectively. Also, the “glyphosate rate up to which tolerance was shown” value in assay [4] is listed as “up to 2240 g ae/ha”.

Values taken from US9540654B2, “Synthetic brassica-derived chloroplast transit peptides” (Dow AgroSciences LLC, priority 2012, dated 2017).
